Legend:
Assay in all cases: Kinase Profiling Assay
Type in all cases: biochemical
Settings in all cases: 100 μM
[1] = target: Abl (M351T)(h) (Homo sapiens, UniProt P00519, M351T)
[2] = target: T1, Aurora-A(h) (Homo sapiens, UniProt O14965)
T1 sequence (O14965 1-403): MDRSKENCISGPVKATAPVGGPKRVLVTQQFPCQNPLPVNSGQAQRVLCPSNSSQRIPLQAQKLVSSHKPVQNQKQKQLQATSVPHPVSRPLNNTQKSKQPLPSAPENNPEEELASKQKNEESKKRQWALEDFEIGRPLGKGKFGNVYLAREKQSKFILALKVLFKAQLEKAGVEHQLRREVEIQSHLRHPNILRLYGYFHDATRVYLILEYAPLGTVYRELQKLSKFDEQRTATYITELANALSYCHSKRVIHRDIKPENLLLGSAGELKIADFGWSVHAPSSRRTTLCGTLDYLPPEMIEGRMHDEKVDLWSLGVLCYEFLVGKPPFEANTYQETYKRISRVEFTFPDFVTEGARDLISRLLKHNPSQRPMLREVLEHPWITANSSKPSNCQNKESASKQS

[3] = target: CK1γ2(h) (Homo sapiens, UniProt P78368)
[4] = target: CK1γ3(h) (Homo sapiens, UniProt Q9Y6M4)
CK1γ3(h), sequence (Q9Y6M4 whole entry): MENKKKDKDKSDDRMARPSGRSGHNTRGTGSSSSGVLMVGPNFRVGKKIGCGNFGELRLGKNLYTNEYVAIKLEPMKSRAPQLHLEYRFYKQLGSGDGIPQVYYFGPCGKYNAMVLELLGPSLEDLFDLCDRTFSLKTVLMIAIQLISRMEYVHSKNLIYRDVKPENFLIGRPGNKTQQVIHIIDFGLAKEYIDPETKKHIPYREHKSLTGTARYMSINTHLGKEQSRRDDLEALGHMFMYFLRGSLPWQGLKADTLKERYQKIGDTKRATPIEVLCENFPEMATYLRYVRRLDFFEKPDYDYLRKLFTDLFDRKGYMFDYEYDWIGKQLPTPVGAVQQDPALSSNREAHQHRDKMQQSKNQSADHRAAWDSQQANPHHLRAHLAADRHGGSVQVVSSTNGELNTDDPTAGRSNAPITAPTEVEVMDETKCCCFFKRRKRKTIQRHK

[5] = target: cKit(V560G)(h) (Homo sapiens, UniProt P10721, V560G)
[6] = target: IGF-1R(h) (Homo sapiens, UniProt P08069)
[7] = target: MAPK1(h) (Homo sapiens, UniProt P27361)
MAPK1(h), sequence (P27361 whole entry): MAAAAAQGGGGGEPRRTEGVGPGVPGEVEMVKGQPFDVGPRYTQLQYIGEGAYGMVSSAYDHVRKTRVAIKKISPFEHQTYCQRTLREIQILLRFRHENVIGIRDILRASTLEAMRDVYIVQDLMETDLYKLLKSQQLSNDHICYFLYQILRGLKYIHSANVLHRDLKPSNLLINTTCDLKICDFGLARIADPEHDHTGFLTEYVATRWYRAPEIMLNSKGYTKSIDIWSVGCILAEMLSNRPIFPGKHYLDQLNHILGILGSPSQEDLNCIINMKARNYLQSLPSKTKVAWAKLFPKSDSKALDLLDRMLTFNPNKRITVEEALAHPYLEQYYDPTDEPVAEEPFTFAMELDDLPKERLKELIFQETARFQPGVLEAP

[8] = target: MRCKα(h) (Homo sapiens, UniProt Q5VT25)
MRCKα(h), sequence (Q5VT25 whole entry): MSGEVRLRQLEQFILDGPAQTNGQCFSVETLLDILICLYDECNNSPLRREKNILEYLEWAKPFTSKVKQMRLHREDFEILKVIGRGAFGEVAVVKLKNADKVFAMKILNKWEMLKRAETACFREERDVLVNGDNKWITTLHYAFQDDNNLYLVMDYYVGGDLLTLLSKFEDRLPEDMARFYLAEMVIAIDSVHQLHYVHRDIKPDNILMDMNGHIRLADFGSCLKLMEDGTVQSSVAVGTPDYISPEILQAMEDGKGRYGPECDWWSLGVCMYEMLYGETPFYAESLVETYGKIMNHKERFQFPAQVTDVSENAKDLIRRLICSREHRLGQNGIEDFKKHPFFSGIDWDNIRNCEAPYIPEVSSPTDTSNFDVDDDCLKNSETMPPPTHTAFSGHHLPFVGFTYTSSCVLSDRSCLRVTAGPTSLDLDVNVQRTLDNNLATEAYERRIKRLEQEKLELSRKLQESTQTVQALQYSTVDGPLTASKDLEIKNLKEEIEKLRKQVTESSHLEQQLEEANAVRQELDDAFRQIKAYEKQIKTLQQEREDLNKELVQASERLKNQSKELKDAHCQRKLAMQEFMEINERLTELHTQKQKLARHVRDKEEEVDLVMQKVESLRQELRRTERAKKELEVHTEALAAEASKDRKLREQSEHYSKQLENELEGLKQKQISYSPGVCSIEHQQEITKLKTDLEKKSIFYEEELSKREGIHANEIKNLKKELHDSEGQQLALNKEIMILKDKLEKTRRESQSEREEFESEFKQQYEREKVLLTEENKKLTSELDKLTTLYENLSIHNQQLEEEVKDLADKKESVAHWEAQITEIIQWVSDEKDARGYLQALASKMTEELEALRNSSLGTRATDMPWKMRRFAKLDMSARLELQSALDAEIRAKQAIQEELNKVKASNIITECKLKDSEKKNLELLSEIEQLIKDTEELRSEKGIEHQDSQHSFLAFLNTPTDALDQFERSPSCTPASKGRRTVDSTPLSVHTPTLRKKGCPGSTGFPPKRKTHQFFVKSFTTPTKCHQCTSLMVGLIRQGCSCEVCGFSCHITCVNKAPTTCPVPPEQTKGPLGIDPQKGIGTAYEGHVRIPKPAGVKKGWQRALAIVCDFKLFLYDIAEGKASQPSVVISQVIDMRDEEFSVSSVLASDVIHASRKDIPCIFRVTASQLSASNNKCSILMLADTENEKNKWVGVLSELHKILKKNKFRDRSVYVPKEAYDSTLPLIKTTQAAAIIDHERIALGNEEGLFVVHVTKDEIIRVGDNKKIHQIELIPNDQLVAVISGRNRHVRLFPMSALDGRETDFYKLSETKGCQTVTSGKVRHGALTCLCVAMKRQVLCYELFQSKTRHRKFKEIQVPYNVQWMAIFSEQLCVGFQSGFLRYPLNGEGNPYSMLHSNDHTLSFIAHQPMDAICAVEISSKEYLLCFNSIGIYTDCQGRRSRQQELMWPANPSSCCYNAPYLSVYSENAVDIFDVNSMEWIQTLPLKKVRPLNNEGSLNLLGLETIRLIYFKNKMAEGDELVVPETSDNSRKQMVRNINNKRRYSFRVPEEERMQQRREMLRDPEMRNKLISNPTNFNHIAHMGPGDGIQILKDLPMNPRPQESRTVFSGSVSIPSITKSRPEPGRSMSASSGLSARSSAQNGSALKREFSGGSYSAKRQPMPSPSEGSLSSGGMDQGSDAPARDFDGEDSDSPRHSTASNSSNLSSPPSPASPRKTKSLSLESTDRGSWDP

[9] = target: PAK6(h) (Homo sapiens, UniProt Q9NQU5)
[10] = target: PDGFRα(D842V)(h) (Homo sapiens, UniProt P16234, D842V)
PDGFRα(D842V)(h), sequence (P16234 24-1089 D842V): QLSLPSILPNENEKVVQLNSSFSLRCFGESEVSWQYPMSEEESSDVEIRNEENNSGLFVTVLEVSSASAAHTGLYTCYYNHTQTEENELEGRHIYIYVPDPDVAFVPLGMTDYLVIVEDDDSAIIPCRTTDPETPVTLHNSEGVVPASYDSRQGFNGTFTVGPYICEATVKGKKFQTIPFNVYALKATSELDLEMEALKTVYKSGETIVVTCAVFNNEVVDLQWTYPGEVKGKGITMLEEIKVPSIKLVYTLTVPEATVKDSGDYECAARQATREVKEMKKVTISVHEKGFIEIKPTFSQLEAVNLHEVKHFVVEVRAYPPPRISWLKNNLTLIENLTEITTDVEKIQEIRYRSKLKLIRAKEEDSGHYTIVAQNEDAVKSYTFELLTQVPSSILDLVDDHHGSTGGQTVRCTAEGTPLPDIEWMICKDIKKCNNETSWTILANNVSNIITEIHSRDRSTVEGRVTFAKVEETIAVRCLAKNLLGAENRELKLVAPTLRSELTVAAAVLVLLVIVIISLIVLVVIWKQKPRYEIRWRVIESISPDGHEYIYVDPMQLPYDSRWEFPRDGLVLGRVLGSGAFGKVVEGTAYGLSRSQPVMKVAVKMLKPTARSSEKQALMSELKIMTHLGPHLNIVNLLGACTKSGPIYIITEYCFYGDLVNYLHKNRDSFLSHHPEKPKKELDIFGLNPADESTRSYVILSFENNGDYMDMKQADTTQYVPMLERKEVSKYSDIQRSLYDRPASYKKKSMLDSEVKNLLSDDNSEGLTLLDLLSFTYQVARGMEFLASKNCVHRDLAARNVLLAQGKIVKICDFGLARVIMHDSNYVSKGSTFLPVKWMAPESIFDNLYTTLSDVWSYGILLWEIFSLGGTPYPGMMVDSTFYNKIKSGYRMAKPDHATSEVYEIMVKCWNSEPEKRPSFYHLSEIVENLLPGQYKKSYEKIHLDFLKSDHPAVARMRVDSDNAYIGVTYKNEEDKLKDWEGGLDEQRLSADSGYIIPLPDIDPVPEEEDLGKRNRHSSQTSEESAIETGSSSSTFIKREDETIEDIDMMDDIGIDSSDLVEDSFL

[11] = target: c-RAF(h) (Homo sapiens, UniProt P04049)
[12] = target: PKA(h) (Homo sapiens, UniProt P17612)
[13] = target: CK1γ1(h) (Homo sapiens, UniProt Q9HCP0)
[14] = target: CLK2(h) (Homo sapiens, UniProt P49760)
CLK2(h), sequence (P49760 whole entry): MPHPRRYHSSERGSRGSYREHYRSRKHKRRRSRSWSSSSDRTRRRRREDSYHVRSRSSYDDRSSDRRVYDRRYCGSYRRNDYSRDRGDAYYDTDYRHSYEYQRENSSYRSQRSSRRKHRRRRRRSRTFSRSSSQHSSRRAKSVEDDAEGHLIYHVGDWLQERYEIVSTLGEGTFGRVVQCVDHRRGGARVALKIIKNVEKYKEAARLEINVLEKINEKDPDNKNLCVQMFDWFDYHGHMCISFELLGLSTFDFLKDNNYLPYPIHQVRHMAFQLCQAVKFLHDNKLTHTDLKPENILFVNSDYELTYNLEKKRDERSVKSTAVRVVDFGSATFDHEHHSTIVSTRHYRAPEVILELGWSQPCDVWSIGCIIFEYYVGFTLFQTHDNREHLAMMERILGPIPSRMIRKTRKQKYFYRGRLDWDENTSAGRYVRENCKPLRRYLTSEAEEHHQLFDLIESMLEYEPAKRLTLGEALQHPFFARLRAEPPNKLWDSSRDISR

[15] = target: Plk1(h) (Homo sapiens, UniProt P53350)
Plk1(h), sequence (P53350 whole entry): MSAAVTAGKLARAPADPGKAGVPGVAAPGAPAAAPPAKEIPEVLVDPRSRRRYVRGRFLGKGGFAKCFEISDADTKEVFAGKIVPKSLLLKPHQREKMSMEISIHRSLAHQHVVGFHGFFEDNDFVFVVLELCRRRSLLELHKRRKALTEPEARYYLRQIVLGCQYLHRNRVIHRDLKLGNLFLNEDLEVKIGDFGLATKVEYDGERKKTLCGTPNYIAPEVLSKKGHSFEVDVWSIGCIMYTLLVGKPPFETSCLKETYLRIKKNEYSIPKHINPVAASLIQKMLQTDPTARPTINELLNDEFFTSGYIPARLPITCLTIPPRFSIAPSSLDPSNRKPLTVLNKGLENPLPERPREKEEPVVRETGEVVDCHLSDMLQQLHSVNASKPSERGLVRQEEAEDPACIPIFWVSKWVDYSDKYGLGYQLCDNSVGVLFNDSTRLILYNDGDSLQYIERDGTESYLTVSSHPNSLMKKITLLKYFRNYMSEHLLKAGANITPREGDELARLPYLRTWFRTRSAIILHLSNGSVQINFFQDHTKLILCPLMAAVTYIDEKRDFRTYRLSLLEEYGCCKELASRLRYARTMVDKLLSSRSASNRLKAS

Row | Sequence | % activity [1] | % activity [2] | % activity [3] | % activity [4] | % activity [5] | % activity [6] | % activity [7] | % activity [8] | % activity [9] | % activity [10] | % activity [11] | % activity [12] | % activity [13] | % activity [14] | % activity [15]
1 | FAKLAARLYRKALARQLGVAA [MMI-0300] | 90% | 92% | 123% | 125% | – | – | – | – | – | – | – | – | – | – | –
2 | KAFAKLAARLYRKALARQLGVAA [MMI-0400] | – | – | – | – | 124% | 90% | 100% | 97% | 100% | 118% | – | – | – | – | –
3 | HRRIKAWLKKIKALARQLGVAA [MMI-0500] | 61% | 110% | – | – | 198% | – | – | 5% | – | 170% | 19% | 118% | – | – | –
4 | YARAAARQARAKALNRQLGVA [MMI-0200] | – | – | – | 96% | – | 49% | 97% | – | – | – | – | 110% | 98% | 97% | 128%

Source: patent publication US20190134153A1, “IMMUNOMODULATORY EFFECT OF INHALED KINASE INHIBITOR PEPTIDES IN LUNG” (MOERAE MATRIX, INC., priority 2017, published 2019)
